Reference: paper PMC8402544

Molecular target: Aedes aegypti membrane-bound alkaline phosphatase (Aa-mALP), 54 kDa His(6)-tagged (Aedes aegypti)
Experiment: ELISA; sandwich ELISA; Aa-mALP (2.5 µg) coated on 96-well plates in 50 mM carbonate buffer pH 9.0; ligands at 100, 200, 300 and 400 nM, 37 °C, 2 h; detected with rabbit anti-Cry4Ba antibodies and HRP anti-rabbit IgG; apparent Kd; relative binding with Wt-R203Q set at 100%

| Substance | Kd [nM] |
| --- | --- |
| 21 kDa isolated Cry4Ba-DIII fragment (domain or fragment) | 110 |
| 65 kDa Cry4Ba-R203Q full-length (trypsin-activated) toxin (natural protein) | 80 |
